Measured values as given in article PMC3538678.

How the values were obtained:
[1] = target: recombinant human laminin-511 (α5β1γ1) (human) (UniProt O15230)
[2] = target: recombinant human laminin-521 (α5β2γ1) (human) (UniProt O15230)
[3] = target: recombinant human laminin-511 (α5β1γ1) (human) (UniProt O15230); remark: listed apart in the source
[4] = target: recombinant human laminin-521 (α5β2γ1) (human) (UniProt O15230); remark: listed apart in the source

adhesion of BE melanoma cells to wells coated with rhLM511 (20 µg/ml), OD [1]: 1.65 OD | adhesion of KG1C glioma cells to wells coated with rhLM511 (20 µg/ml), OD [1]: 1.48 OD | adhesion of MDA-MB-231 breast carcinoma cells to wells coated with rhLM511 (20 µg/ml), OD [1]: 1.82 OD | adhesion of BE melanoma cells to wells coated with rhLM521 (20 µg/ml), OD [2]: 1.56 OD | adhesion of KG1C glioma cells to wells coated with rhLM521 (20 µg/ml), OD [2]: 1.39 OD | adhesion of MDA-MB-231 breast carcinoma cells to wells coated with rhLM521 (20 µg/ml), OD [2]: 1.85 OD | migration of carcinoma cells through membranes coated with rhLM511, cells/field [3]: 190 cells/field | migration of glioma cells through membranes coated with rhLM511, cells/field [3]: 161 cells/field | migration of melanoma cells through membranes coated with rhLM511, cells/field [3]: 88 cells/field | migration of carcinoma cells through membranes coated with rhLM521, cells/field [4]: 198 cells/field | migration of glioma cells through membranes coated with rhLM521, cells/field [4]: 174 cells/field | migration of melanoma cells through membranes coated with rhLM521, cells/field [4]: 203 cells/field
Substance: recombinant human α3β1 integrin (from UniProt P26006 33-1051; P05556 21-728) (receptor)
